Source: US20140087995A1 (published 2014)
Numbered stars: 1 amine (or outer) side, 2 acyl side, 3 side chain; on linkers, the order of the positions; unused ones are H or OH. Bridge positions count the residues as written; N and C are the ends. Side chains are listed from the residue outwards. Ends that are not written are not given here. * marks the point of attachment. C20 diacid = O=C(O)CCCCCCCCCCCCCCCCCCC(=O)*; γGlu = O=C(O)[C@H](CCC(=O)[*:2])N[*:1]; AEEA = NCCOCCOCC(=O)O

T1: human calcitonin receptor (human, UniProt P30988 25-474)
T1 construct: whole, on cells; Assayed as cell membranes of BHK tk'ts 13 cells stably transfected with the human calcitonin receptor (Assay VII); also called hCTR; hCT
T1 sequence (looked up): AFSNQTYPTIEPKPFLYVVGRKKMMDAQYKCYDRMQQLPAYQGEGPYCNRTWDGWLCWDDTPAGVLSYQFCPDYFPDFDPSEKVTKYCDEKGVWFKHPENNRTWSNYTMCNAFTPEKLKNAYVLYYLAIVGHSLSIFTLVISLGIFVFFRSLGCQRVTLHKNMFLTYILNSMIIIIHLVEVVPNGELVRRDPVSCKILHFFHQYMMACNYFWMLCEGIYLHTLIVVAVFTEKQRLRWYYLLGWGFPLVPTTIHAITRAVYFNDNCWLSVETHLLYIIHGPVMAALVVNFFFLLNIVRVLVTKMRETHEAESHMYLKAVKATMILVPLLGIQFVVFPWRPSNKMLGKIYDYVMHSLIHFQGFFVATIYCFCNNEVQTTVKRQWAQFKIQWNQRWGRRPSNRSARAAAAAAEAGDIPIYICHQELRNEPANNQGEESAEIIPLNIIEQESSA

B1: N^ε1-[2-[2-[2-[[(4S)-4-carboxy-4-(19-carboxynonadecanoylamino)butanoyl]amino]ethoxy]ethoxy]acetyl]-[His14,Arg17,Pro21,Pro27]-h-amylin (peptide)
peptide: K([AEEA-γGlu-C20 diacid])CNTATCATQRLAHFLRHSSPNFGAIPSSTNVGSNTY-NH2
modifications: disulfide 2-7; N-terminus assumed
SMILES: CC[C@H](C)[C@H](NC(=O)[C@H](C)NC(=O)CNC(=O)[C@H](Cc1ccccc1)NC(=O)[C@H](CC(N)=O)NC(=O)[C@@H]1CCCN1C(=O)[C@H](CO)NC(=O)[C@H](CO)NC(=O)[C@H](Cc1c[nH]cn1)NC(=O)[C@H](CCCNC(=N)N)NC(=O)[C@H](CC(C)C)NC(=O)[C@H](Cc1ccccc1)NC(=O)[C@H](Cc1c[nH]cn1)NC(=O)[C@H](C)NC(=O)[C@H](CC(C)C)NC(=O)[C@H](CCCNC(=N)N)NC(=O)[C@H](CCC(N)=O)NC(=O)[C@@H](NC(=O)[C@H](C)NC(=O)[C@@H]1CSSC[C@H](NC(=O)[C@@H](N)CCCCNC(=O)COCCOCCNC(=O)CC[C@H](NC(=O)CCCCCCCCCCCCCCCCCCC(=O)O)C(=O)O)C(=O)N[C@@H](CC(N)=O)C(=O)N[C@@H]([C@@H](C)O)C(=O)N[C@@H](C)C(=O)N[C@@H]([C@@H](C)O)C(=O)N1)[C@@H](C)O)C(=O)N1CCC[C@H]1C(=O)N[C@@H](CO)C(=O)N[C@@H](CO)C(=O)N[C@H](C(=O)N[C@@H](CC(N)=O)C(=O)N[C@H](C(=O)NCC(=O)N[C@@H](CO)C(=O)N[C@@H](CC(N)=O)C(=O)N[C@H](C(=O)N[C@@H](Cc1ccc(O)cc1)C(N)=O)[C@@H](C)O)C(C)C)[C@@H](C)O
notes: also called compound 69
B2: N^ε1-[(4S)-4-carboxy-4-[[(4S)-4-carboxy-4-(19-carboxynonadecanoylamino)butanoyl]amino]butanoyl]-[Asp14,Arg17,Pro21,Pro27,Arg35]-h-amylin (peptide)
peptide: K([γGlu-γGlu-C20 diacid])CNTATCATQRLADFLRHSSPNFGAIPSSTNVGSRTY-NH2
modifications: disulfide 2-7; N-terminus assumed
SMILES: CC[C@H](C)[C@H](NC(=O)[C@H](C)NC(=O)CNC(=O)[C@H](Cc1ccccc1)NC(=O)[C@H](CC(N)=O)NC(=O)[C@@H]1CCCN1C(=O)[C@H](CO)NC(=O)[C@H](CO)NC(=O)[C@H](Cc1c[nH]cn1)NC(=O)[C@H](CCCNC(=N)N)NC(=O)[C@H](CC(C)C)NC(=O)[C@H](Cc1ccccc1)NC(=O)[C@H](CC(=O)O)NC(=O)[C@H](C)NC(=O)[C@H](CC(C)C)NC(=O)[C@H](CCCNC(=N)N)NC(=O)[C@H](CCC(N)=O)NC(=O)[C@@H](NC(=O)[C@H](C)NC(=O)[C@@H]1CSSC[C@H](NC(=O)[C@@H](N)CCCCNC(=O)CC[C@H](NC(=O)CC[C@H](NC(=O)CCCCCCCCCCCCCCCCCCC(=O)O)C(=O)O)C(=O)O)C(=O)N[C@@H](CC(N)=O)C(=O)N[C@@H]([C@@H](C)O)C(=O)N[C@@H](C)C(=O)N[C@@H]([C@@H](C)O)C(=O)N1)[C@@H](C)O)C(=O)N1CCC[C@H]1C(=O)N[C@@H](CO)C(=O)N[C@@H](CO)C(=O)N[C@H](C(=O)N[C@@H](CC(N)=O)C(=O)N[C@H](C(=O)NCC(=O)N[C@@H](CO)C(=O)N[C@@H](CCCNC(=N)N)C(=O)N[C@H](C(=O)N[C@@H](Cc1ccc(O)cc1)C(N)=O)[C@@H](C)O)C(C)C)[C@@H](C)O
notes: also called compound 52
B3: N^ε1-[2-[2-[2-(19-carboxynonadecanoylamino)ethoxy]ethoxy]acetyl]-[Arg17,Pro21,Pro27,His34]-h-amylin (peptide)
peptide: K([AEEA-C20 diacid])CNTATCATQRLANFLRHSSPNFGAIPSSTNVGHNTY-NH2
modifications: disulfide 2-7; N-terminus assumed
SMILES: CC[C@H](C)[C@H](NC(=O)[C@H](C)NC(=O)CNC(=O)[C@H](Cc1ccccc1)NC(=O)[C@H](CC(N)=O)NC(=O)[C@@H]1CCCN1C(=O)[C@H](CO)NC(=O)[C@H](CO)NC(=O)[C@H](Cc1c[nH]cn1)NC(=O)[C@H](CCCNC(=N)N)NC(=O)[C@H](CC(C)C)NC(=O)[C@H](Cc1ccccc1)NC(=O)[C@H](CC(N)=O)NC(=O)[C@H](C)NC(=O)[C@H](CC(C)C)NC(=O)[C@H](CCCNC(=N)N)NC(=O)[C@H](CCC(N)=O)NC(=O)[C@@H](NC(=O)[C@H](C)NC(=O)[C@@H]1CSSC[C@H](NC(=O)[C@@H](N)CCCCNC(=O)COCCOCCNC(=O)CCCCCCCCCCCCCCCCCCC(=O)O)C(=O)N[C@@H](CC(N)=O)C(=O)N[C@@H]([C@@H](C)O)C(=O)N[C@@H](C)C(=O)N[C@@H]([C@@H](C)O)C(=O)N1)[C@@H](C)O)C(=O)N1CCC[C@H]1C(=O)N[C@@H](CO)C(=O)N[C@@H](CO)C(=O)N[C@H](C(=O)N[C@@H](CC(N)=O)C(=O)N[C@H](C(=O)NCC(=O)N[C@@H](Cc1c[nH]cn1)C(=O)N[C@@H](CC(N)=O)C(=O)N[C@H](C(=O)N[C@@H](Cc1ccc(O)cc1)C(N)=O)[C@@H](C)O)C(C)C)[C@@H](C)O
notes: also called compound 91
B4: N^ε1-[2-[2-[2-[[2-[2-[2-[[(4S)-4-carboxy-4-(19-carboxynonadecanoylamino)butanoyl]amino]ethoxy]ethoxy]acetyl]amino]ethoxy]ethoxy]acetyl]-[Arg17,Pro21,Pro27,Arg34 … (peptide)
peptide: K([AEEA-AEEA-γGlu-C20 diacid])CNTATCATQRLANFLRHSSPNFGAIPSSTNVGRNTY-NH2
modifications: disulfide 2-7; N-terminus assumed
SMILES: CC[C@H](C)[C@H](NC(=O)[C@H](C)NC(=O)CNC(=O)[C@H](Cc1ccccc1)NC(=O)[C@H](CC(N)=O)NC(=O)[C@@H]1CCCN1C(=O)[C@H](CO)NC(=O)[C@H](CO)NC(=O)[C@H](Cc1c[nH]cn1)NC(=O)[C@H](CCCNC(=N)N)NC(=O)[C@H](CC(C)C)NC(=O)[C@H](Cc1ccccc1)NC(=O)[C@H](CC(N)=O)NC(=O)[C@H](C)NC(=O)[C@H](CC(C)C)NC(=O)[C@H](CCCNC(=N)N)NC(=O)[C@H](CCC(N)=O)NC(=O)[C@@H](NC(=O)[C@H](C)NC(=O)[C@@H]1CSSC[C@H](NC(=O)[C@@H](N)CCCCNC(=O)COCCOCCNC(=O)COCCOCCNC(=O)CC[C@H](NC(=O)CCCCCCCCCCCCCCCCCCC(=O)O)C(=O)O)C(=O)N[C@@H](CC(N)=O)C(=O)N[C@@H]([C@@H](C)O)C(=O)N[C@@H](C)C(=O)N[C@@H]([C@@H](C)O)C(=O)N1)[C@@H](C)O)C(=O)N1CCC[C@H]1C(=O)N[C@@H](CO)C(=O)N[C@@H](CO)C(=O)N[C@H](C(=O)N[C@@H](CC(N)=O)C(=O)N[C@H](C(=O)NCC(=O)N[C@@H](CCCNC(=N)N)C(=O)N[C@@H](CC(N)=O)C(=O)N[C@H](C(=O)N[C@@H](Cc1ccc(O)cc1)C(N)=O)[C@@H](C)O)C(C)C)[C@@H](C)O
notes: also called compound 95

Experiments:
[1] = target: T1, human calcitonin receptor; experiment: SPA competition vs 125I-calcitonin, membranes of BHK cells with human calcitonin receptor (Assay VII)
Protocol: Membranes were prepared in the following way; the cells were rinsed with PBS and incubated with Versene for approximately 5 min before harvesting. The cells were flushed with PBS and the cell-suspension was centrifuged for 5 min at 1000 rpm. Cells were homogenized (Ultrathurrax) in a buffer containing 20 mM Na-HEPES and 10 mM EDTA (pH 7.4) and centrifuged at 20.000 rpm for 15 min. The resulting pellet was resuspended, homogenized and centrifuged (20.000 rpm, 15 min) in a buffer containing 20 mM Na-HEPES and 0.1 mM EDTA (pH 7.4, buffer 2). The resulting pellet was resuspended in buffer 2 and protein concentration was measured (BCA protein Assay, Pierce). The homogenate was kept cold during the whole procedure. The membranes were kept at −80° C. until use. Assay was performed in a 384 well Optiplate (PerkinElmer) in a total volume of 40 ul. Membranes were mixed with SPA beads. Final concentration of membranes 35 ng/μL final and Final concentration of SPA beads was 0.05 mg/well. Test-compounds were dissolved in DMSO and further diluted in assay buffer (50 mM Hepes, pH 7.4, 1 mM CaCl2, 5 mM MgCl₂, 0.1% OA and 0.02% Tween20). […] The final mixture was incubated for 120 min with shaking at 400 rpm at 25° C. prior to centrifugation (1500 rpm, 10 min). Samples were analyzed on TopCounter™ (Packard). The […] was calculated using (one site binding competition analysis) GraphPad Prism5 as a measure of receptor affinity.

[2] = target: T1, human calcitonin receptor; experiment: IC50 at hCTR divided by IC50 at hAmylin-R (SPA competition assays V and VII)
Protocol: The resulting pellet was resuspended, homogenized and centrifuged (20.000 rpm, 15 min) in a buffer containing 20 mM Na-HEPES and 0.1 mM EDTA (pH 7.4, buffer 2). The resulting pellet was resuspended in buffer 2 and protein concentration was measured (BCA protein Assay, Pierce). The homogenate was kept cold during the whole procedure. The membranes were kept at −80° C. until use. The assay was performed in a 384 well Optiplate (PerkinElmer) in a total volume of 40 ul. Membranes were mixed with SPA beads. Final concentration of membranes 35 ng/μL final and SPA beads was 0.05 mg/well. Test-compounds were dissolved in DMSO and further diluted in assay buffer (50 mM Hepes, pH 7.4, 1 mM CaCl2, 5 mM MgCl₂, 0.1% OA and 0.02% Tween20). […] The final mixture was incubated with shaking at 400 rpm for 120 min at 25° C. prior to centrifugation (1500 rpm, 10 min). Samples were analyzed on TopCounter™ (Packard). The IC₅₀ was calculated using (one site binding competition analysis) GraphPad Prism5 as a measure of receptor affinity.
Membranes were prepared in the following way; the cells were rinsed with PBS and incubated with Versene for approximately 5 min before harvesting. The cells were flushed with PBS and the cell-suspension was centrifuged for 5 min at 1000 rpm. Cells were homogenized (Ultrathurrax) in a buffer containing 20 mM Na-HEPES and 10 mM EDTA (pH 7.4) and centrifuged at 20.000 rpm for 15 min. The resulting pellet was resuspended, homogenized and centrifuged (20.000 rpm, 15 min) in a buffer containing 20 mM Na-HEPES and 0.1 mM EDTA (pH 7.4, buffer 2). The resulting pellet was resuspended in buffer 2 and protein concentration was measured (BCA protein Assay, Pierce). The homogenate was kept cold during the whole procedure. The membranes were kept at −80° C. until use. Assay was performed in a 384 well Optiplate (PerkinElmer) in a total volume of 40 ul. Membranes were mixed with SPA beads.

| Binder | IC50 [1] | Ratio hCT/hAmylin binding [2] |
| --- | --- | --- |
| B1 | 8.68 nM | 65.3 |
| B2 | 56.9 nM | – |
| B3 | 12 nM | 101 |
| B4 | 61.3 nM | 63.4 |
